Laboratory results published in article PMC8857470, “Molecular insights into the maturation of phosphodiesterase 6 by the specialized chaperone complex of HSP90 with AIPL1” (The Journal of Biological Chemistry, 2022).

Biological target: full-length human HSP90β (residues 1–724), pET15b construct (human) (UniProt P08238)
Assay: cross-linking + other: mass photometry; DSS (0.5 mM) or glutaraldehyde (0.03%) added to HSP90β (15 μM), AIPL1 (25 μM) or their mixture (HSP90_(AMPPNP)/AIPL1), 15 to 30 min at 25 °C, 25 mM Hepes pH 7.5, 200 mM NaCl, 5% glycerol, 1 mM TCEP; products on 3 to 8% Tris-acetate gel and by mass photometry

full-length human HSP90β (residues 1–724), pET15b construct, P08238 1-724 (natural protein; other documents disagree on this pair), sequence (P08238 whole entry, the tested form may be a part): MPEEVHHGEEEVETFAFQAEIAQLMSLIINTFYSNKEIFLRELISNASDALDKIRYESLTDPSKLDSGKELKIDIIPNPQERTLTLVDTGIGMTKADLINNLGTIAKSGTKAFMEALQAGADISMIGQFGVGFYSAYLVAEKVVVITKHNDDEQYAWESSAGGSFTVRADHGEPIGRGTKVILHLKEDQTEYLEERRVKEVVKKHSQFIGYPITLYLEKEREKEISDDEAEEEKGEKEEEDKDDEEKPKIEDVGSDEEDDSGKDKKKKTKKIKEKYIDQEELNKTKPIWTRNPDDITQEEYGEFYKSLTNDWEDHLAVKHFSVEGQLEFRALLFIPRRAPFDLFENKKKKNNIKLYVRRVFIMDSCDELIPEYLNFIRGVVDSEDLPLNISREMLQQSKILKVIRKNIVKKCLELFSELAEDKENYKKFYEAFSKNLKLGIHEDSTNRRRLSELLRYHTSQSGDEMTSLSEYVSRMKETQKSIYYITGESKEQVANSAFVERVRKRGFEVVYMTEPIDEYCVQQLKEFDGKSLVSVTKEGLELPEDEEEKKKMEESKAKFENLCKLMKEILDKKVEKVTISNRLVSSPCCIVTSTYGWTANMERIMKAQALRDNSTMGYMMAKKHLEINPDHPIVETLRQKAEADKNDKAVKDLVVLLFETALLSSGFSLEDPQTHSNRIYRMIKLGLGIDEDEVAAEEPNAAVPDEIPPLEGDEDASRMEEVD

stoichiometry N: 2
Substance: full-length human HSP90β (residues 1–724), pET15b construct, P08238 1-724 (natural protein; other documents disagree on this pair)
